In US20230189818A1, “RNA-BASED CONTROL OF BOTRYTIS” (priority 2021, published 2023):

Key:
[1] = tested on: Botrytis cinerea conidia; test: In vitro liquid-based assay (fungal biomass, 96-well plates, Cytation 5); assay type: cell-based; conditions: co-incubated with conidia for three days, vs untreated control
Summary of the method: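 Conidia (5000/mL stock) were co-incubated with dsRNA or control treatments in pH 6.0 minimal medium. Incubation ran 72 h at 23 °C, shaking at 120 rpm under continuous light. Fungal biomass was measured by brightfield imaging (8 slices per well, 2.5× lens) and expressed as average reduction versus control.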

[2] = tested on: Botrytis cinerea isolate (B05.10); test: Detached leaf assay (tomato leaflets, lesion size); assay type: in vivo; conditions: five days post inoculation, vs untreated inoculated control
Summary of the method: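 Tomato (Brandywine) detached lateral leaflets were sprayed with treatment in 0.03% Silwet L-77 24 h before inoculation. Two 10 μL drops of 1×10^5 conidia/mL in 7% grape juice were applied per leaflet, which was then incubated at 23 °C, ~75% RH, 12/12 light. Lesion diameter was measured at 5 DPI against the untreated inoculated control, ten replicates.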

B1: GS730: dsRNA trigger targeting B. cinerea Bcsec15 (XM_024692064.1); trigger SEQ ID NO 19, RNA 31, reverse complement 43 (nucleic acid, listed as Botrytis cinerea)
sense: UCAACGCAGUCUCCAAAGCUUUGGAUGAAUUCGAUAACCCGGAUGUUAUUCUGCAAACCAAGAAUGUGAUAGCAUUGUUCAUCCAAACAAUGGAGGGUUGGGGAUAUUCAGUUGCCAUAUUAGAUGCUUAUGUGCUUAAGCUUUUCUAUAGAUAUGCUGAUUUGUUAAAACGGAAAUUCAGCACAGAUUUUCAACAGAUUGUGUCUACCGAUGAAUACAUGCCUAUGCCUGUCAAUAGCGAAGAAGACUUUGAUAAAAUCAUUCAAGUCAGUUGGUAUGUUCCGGACAGACCGAAAGAAGAAUACACAUUCCCCGGUGUAUUACCAUUCUCCCAGAUGUACCCAAUGUGCUGUAUAGAUAUCAGAAAUUUCCUGAAUCGAUUCUACUUCAUAAUGGAUGAUCAUUUUCAACAGCCAAACAUUAUUGAUGAGACACUUAAGAAGUCGAUAGAUGAGCUUCUGUCUGAGGAUAUUUGUGA
antisense: UCACAAAUAUCCUCAGACAGAAGCUCAUCUAUCGACUUCUUAAGUGUCUCAUCAAUAAUGUUUGGCUGUUGAAAAUGAUCAUCCAUUAUGAAGUAGAAUCGAUUCAGGAAAUUUCUGAUAUCUAUACAGCACAUUGGGUACAUCUGGGAGAAUGGUAAUACACCGGGGAAUGUGUAUUCUUCUUUCGGUCUGUCCGGAACAUACCAACUGACUUGAAUGAUUUUAUCAAAGUCUUCUUCGCUAUUGACAGGCAUAGGCAUGUAUUCAUCGGUAGACACAAUCUGUUGAAAAUCUGUGCUGAAUUUCCGUUUUAACAAAUCAGCAUAUCUAUAGAAAAGCUUAAGCACAUAAGCAUCUAAUAUGGCAACUGAAUAUCCCCAACCCUCCAUUGUUUGGAUGAACAAUGCUAUCACAUUCUUGGUUUGCAGAAUAACAUCCGGGUUAUCGAAUUCAUCCAAAGCUUUGGAGACUGCGUUGA
Average % Reduction in Biomass ([1]; 25 ppm dsRNA): 21%
Average % Reduction in Biomass ([1]; 150 ppm dsRNA): 45%
Average % Reduction in Lesion Size ([2]; 30 ppm): 16.38%
Average % Reduction in Lesion Size ([2]; 50 ppm): 25.11%

B2: GS2280: dsRNA trigger targeting B. cinerea Bcmcm4 (XM_024696090.1); trigger SEQ ID NO 21, RNA 33, reverse complement 45 (nucleic acid, listed as Botrytis cinerea)
sense: AAUGUCCUCGUCCGGUUUGUAAAUCUCCAAACUCCAUGCAGAUUGUACACAACAGGUCUGGAUUCAUGGAUAAGCAAGUUAUCAAGCUUCAAGAAACUCCAGAUUCCGUUCCUGCUGGUCAAACACCACAUUCCGUCUCGAUGUGUGCAUAUGAUGAGUUGGUGGAUCUGUGCAAAGCUGGUGACAGAGUUGAGAUUACUGGUAUCUUCAAAGCUAGUCCAGUUCGUGUCAAUCCUCGCCAAAGAACUCUCAAAAGCAUUUAUAAAACGUACAUCGACGUUUUACACAUUCAAAAGGUUGACAAGAAAAGAAUGGGAAUUGAUGCUUCGACCGUUGAGCAAGAAAUAUCCGAUCAGUUGACAGGCAACAUUGAAGAAACUAGAAAGGUUUCUGAAGAGGAGGAAGAAAAAAUCAGAGAAACCGCUGCAAGACCCGAUAUCUACGAACUUCUAUCUCGAUCCCUCGCACCUAGUAUUUUUGAGAUGGACGAUGUUAAGAAGGGUAUCUUGCUUCAAUUAUUUGGUGGAACUAACAAGUCUUUCGAAAAAGGAGGAAGUCCAAAAUACAGAGGAGAUAUCAAUAUUCUAUUGU
antisense: ACAAUAGAAUAUUGAUAUCUCCUCUGUAUUUUGGACUUCCUCCUUUUUCGAAAGACUUGUUAGUUCCACCAAAUAAUUGAAGCAAGAUACCCUUCUUAACAUCGUCCAUCUCAAAAAUACUAGGUGCGAGGGAUCGAGAUAGAAGUUCGUAGAUAUCGGGUCUUGCAGCGGUUUCUCUGAUUUUUUCUUCCUCCUCUUCAGAAACCUUUCUAGUUUCUUCAAUGUUGCCUGUCAACUGAUCGGAUAUUUCUUGCUCAACGGUCGAAGCAUCAAUUCCCAUUCUUUUCUUGUCAACCUUUUGAAUGUGUAAAACGUCGAUGUACGUUUUAUAAAUGCUUUUGAGAGUUCUUUGGCGAGGAUUGACACGAACUGGACUAGCUUUGAAGAUACCAGUAAUCUCAACUCUGUCACCAGCUUUGCACAGAUCCACCAACUCAUCAUAUGCACACAUCGAGACGGAAUGUGGUGUUUGACCAGCAGGAACGGAAUCUGGAGUUUCUUGAAGCUUGAUAACUUGCUUAUCCAUGAAUCCAGACCUGUUGUGUACAAUCUGCAUGGAGUUUGGAGAUUUACAAACCGGACGAGGACAUU
Average % Reduction in Biomass ([1]; 25 ppm dsRNA): 16%
Average % Reduction in Biomass ([1]; 150 ppm dsRNA): 33%
Average % Reduction in Lesion Size ([2]; 30 ppm): 32.13%
Average % Reduction in Lesion Size ([2]; 50 ppm): 24.08%

B3: GS2303: dsRNA trigger targeting B. cinerea Bcded1 (XM_001550339.2); trigger SEQ ID NO 24, RNA 36, reverse complement 48 (nucleic acid, listed as Botrytis cinerea)
sense: GGGCUAUAUAAGCUUUCAUCUAGGUUUUCCAAGAAACGCAUUACGAUAGACAUGUUCUCCAAAAAUCUUACUGGUCCUGCUUUCAGCAUUUCCAUGGAUCAUGAAGUCCUCCACUAUGGAAGAUUUGCAAAAUAUUUUCGACAUUGCAUUUUGCUGCAUUUCGCAUUUCUAGAUAGAAAAAAAGUGGGAUUCAUAUUCUCGAUAUUUUCUUCGUUGUCUUUUAUUCACAAGACACAUGGCAAGGGAGGAUACCAUUUGAGAGCUUGAAUUGAAGGCUUUCCUCUUACUUUUUUUAUUUUUCACAUCAUCUACGAGUGGGCGUCUUUUACGAUCAAAUCGAUAUACGACAGUGGCACAAAAUAGAAUAGGCAUUUCUCUUCUUAAAAAAGAUUUAAGGGAAGAGUUGGUGCUUGUUCUCUAUAACGCUGAUGGCAUUCGGAAGUGCUCCUGUCCAUUCAGGCUGAGACUGAGACCCAAAAUGUUGGCAGGUACGGCAGAAAGAAGUCUGCUUCAUAUGAUUGAUGGAGGAAGAAAGAAAUAUGGAAUGCGAUGGAUGAGUAAUUACUUUAAAUGAAUAUGAAAA
antisense: UUUUCAUAUUCAUUUAAAGUAAUUACUCAUCCAUCGCAUUCCAUAUUUCUUUCUUCCUCCAUCAAUCAUAUGAAGCAGACUUCUUUCUGCCGUACCUGCCAACAUUUUGGGUCUCAGUCUCAGCCUGAAUGGACAGGAGCACUUCCGAAUGCCAUCAGCGUUAUAGAGAACAAGCACCAACUCUUCCCUUAAAUCUUUUUUAAGAAGAGAAAUGCCUAUUCUAUUUUGUGCCACUGUCGUAUAUCGAUUUGAUCGUAAAAGACGCCCACUCGUAGAUGAUGUGAAAAAUAAAAAAAGUAAGAGGAAAGCCUUCAAUUCAAGCUCUCAAAUGGUAUCCUCCCUUGCCAUGUGUCUUGUGAAUAAAAGACAACGAAGAAAAUAUCGAGAAUAUGAAUCCCACUUUUUUUCUAUCUAGAAAUGCGAAAUGCAGCAAAAUGCAAUGUCGAAAAUAUUUUGCAAAUCUUCCAUAGUGGAGGACUUCAUGAUCCAUGGAAAUGCUGAAAGCAGGACCAGUAAGAUUUUUGGAGAACAUGUCUAUCGUAAUGCGUUUCUUGGAAAACCUAGAUGAAAGCUUAUAUAGCCC
Average % Reduction in Biomass ([1]; 25 ppm dsRNA): 13%
Average % Reduction in Biomass ([1]; 150 ppm dsRNA): 26%
Average % Reduction in Lesion Size ([2]; 30 ppm): 43.06%
Average % Reduction in Lesion Size ([2]; 50 ppm): 26.55%

B4: GS349: dsRNA trigger targeting B. cinerea CDC42 (XM_001545642.2); trigger SEQ ID NO 14, RNA 26, reverse complement 38 (nucleic acid, listed as Botrytis cinerea)
sense: GUUGUCUUGUCUCGCUCAAGCUUGUCCUGUCUGGUCACUUUUCUUUCUGCCUGAUAAUCCAGACCUCGAAAAUAACCAAAAGAUUGGAAAUCGUUUGCUCAUCUUGCAUGCAUUAUUACUUUCCUGGAUCAAUCUCAUUCAACUCGUUCUCGUGCAUUUCAUUCAACCUCAACCCCUACUUUCAGUCAAUUCAAUUUAAUUCAAUCAUUCAAAUCUUUCAUUUCGCACACUUCACAUUCAACCAUCCUCUCUCAAUCAAAUAUCACCACCUCUCUUAUCGAACGUCAUUUUGCAUACAAUCAAUUCCUACAGACCGAGCGCAACUCGAUACAACCAUCGAAUAACUUCUCACACUUGCUUGUUGAAUUGAUUACUGAAGAAAGUGGAUUUCAAAGACCGAUUUUCCCCCUAGAUAUUCAAGAACGGCUUAUUCUUGUCUCGAGACAAAAC
antisense: GUUUUGUCUCGAGACAAGAAUAAGCCGUUCUUGAAUAUCUAGGGGGAAAAUCGGUCUUUGAAAUCCACUUUCUUCAGUAAUCAAUUCAACAAGCAAGUGUGAGAAGUUAUUCGAUGGUUGUAUCGAGUUGCGCUCGGUCUGUAGGAAUUGAUUGUAUGCAAAAUGACGUUCGAUAAGAGAGGUGGUGAUAUUUGAUUGAGAGAGGAUGGUUGAAUGUGAAGUGUGCGAAAUGAAAGAUUUGAAUGAUUGAAUUAAAUUGAAUUGACUGAAAGUAGGGGUUGAGGUUGAAUGAAAUGCACGAGAACGAGUUGAAUGAGAUUGAUCCAGGAAAGUAAUAAUGCAUGCAAGAUGAGCAAACGAUUUCCAAUCUUUUGGUUAUUUUCGAGGUCUGGAUUAUCAGGCAGAAAGAAAAGUGACCAGACAGGACAAGCUUGAGCGAGACAAGACAAC
Average % Reduction in Biomass ([1]; 25 ppm dsRNA): 8%
Average % Reduction in Biomass ([1]; 150 ppm dsRNA): 25%
Average % Reduction in Lesion Size ([2]; 30 ppm): 32.99%
Average % Reduction in Lesion Size ([2]; 50 ppm): 31.80%
